Source: the nanobody polyreactivity screen of Harvey et al. (2022)

Assay: yeast display, Sf9 membrane polyspecificity reagent, FACS + sequencing; frameworks hold sequencing errors
Outline: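 Nanobodies from a synthetic yeast display library (Saccharomyces cerevisiae BJ5465), induced 36–48 hours with galactose, were stained 1 hour at 4 °C with 10% biotinylated, detergent-solubilized Sf9 membrane reagent, enriched on streptavidin microbeads, then FACS-sorted. Anti-HA (expression) and streptavidin (reagent binding) fluorescence set low and high (top ~1%) gates. Polyreactivity labels come from the gate of origin. Genes were colony-PCR amplified, MiSeq 2 × 250 sequenced and filtered by CDR length.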

Sequence | polyreactivity (PSR sort gate)
QVQLVESGGGLVQAGGSLRLSCAASGSTFVGYAMGCYRQAPGKERELVATISWIGVRTYYADSVKGRFTISRDNAKNTVYLQMNSLKPEDTAVYYCANRKGYSARSFWRLYEPENDYWGQGTQVNVSS | high polyreactivity
QVQLVESGGGLVQAGGSLRLSCAASGGTFEFYTMGLYRQAPGKERELVAVINASGDSTYYADSVKGRFTISRDNAKNTVYLQMNSLKPEDTAVYYCAADHRGEYDYWGQGTQVTVSS | low polyreactivity
QVQLVESGGCLVQAGGTLRLSCAASGSIFWAYAMGWYRQAPGKERELVAAISRGGTTTYADSVKGRFTISRDNAKNTVYLQMNSLKPEDTAVYYCARRAVYSKRRYDYWGQGTQVTVSS | low polyreactivity
QVQLVESGGGLVQAGGSLRLSCAASGFIFWSYAMGWYRQAPGKERELVAAIDLTGGSTYYADSVKGRFTISRDNAKNTVYFQMNSLKPEDTAVYYCNADGDTYAFTNSDSGFDYWGQGTQVTVSS | low polyreactivity
QVQLVESGGGLVQAGGSLRLSCAASGRTFYYYVMGWYRQAPGKERELVAAISARDGSTYYADSVKGRFTISRDNAKNTVYLQMNSLKPEDTAVYYCNVRALYTRRYDYWGQGTQVTVSS | high polyreactivity
QVQLVESGGGLVQAGGSLRLSCAASGLTFRKYAMGWYRQAPGKERELVAAITRGGSTNYADSVKGRFTISRDNAKNTVYLQMNSLKPEDTAVYYCNTRPYRPFDYWGQGTQVTVSS | high polyreactivity
QVHLVDSGGGLVQARGSLRLSCAASGLTFRYYTMAWYRQAPGKERELVAAISSSGGSTYYADSVKGRFTISRDNAKNTVYLQMNSLKPEDTAVYYCADSASLRHVYWGQGTQVTVSS | high polyreactivity
QVQLVESGGGLVQAGGSLRVSCAASGFTFVGTAMGWYRQAPGKERELVAAITWSGGRTYYADSVKGRFTISRDKAKNTVYLQMNSLTPEDTAVYYCATRWRGRMDYWGQGTQVTVSS | high polyreactivity
QVQLVESGGGLVQAGGSLRLSCAASGRIFRYYAMGWYIQAPGKERELVAAISKSGGGTFYADSVKGRFTISRDNAKNTVYLQMNSLKPEDTEVYYCAARDKGLGKHDYWGQGTQVTVSS | low polyreactivity
QVQLVESGGGLVQAGGSLRLSCAASGRILHHYAMGWYIQAHGKERELVAAIRWGGGSTYYADSVKGRFTISRDNAKNTVYLQMNSLKPEDTAVYYCAAEVVAGYDYSQYYYWGQCTQVTVSS | low polyreactivity
QVQLVESGGGLVQAGGSLRLSCAASGIIFDTNAMGGYRQAPGKERELVATITQRGGTTYYADSVKGRFTISRDNEKYTVYLQMNSLKPEDTAVYYCNAGPVRLPYDSWGQGTQVTVSS | low polyreactivity
QVQHVESGGGLVQAGGSLRLRCAASGFTFGSYAMGWYRQAPGKERELVASISSAGRTYYADSVKGRITISRDNAKNSVYLQMNSLKPEDTAVYYCNTDARVTIYDYDYWGQGTQVTVSS | low polyreactivity
QVQLVESGGGLVQAGGSLRLSCAASGNTVDGNAMGWYRPAPGKERELVAAINYSGASTYYADSVKGRFTISRDNAKNTVYLQINSLKPEDTAVYYCAADDYTASDRYWHDYWGQGTQVTVSS | low polyreactivity
QVQLVESGGGLVQAGGSLRLSCAASGSTFKRYAMGWYRQAPGKEMELVAAISTRGSTYYADSVKGRFTISRDNAKNTVYLQMNRLKPEETAVYYCNADVGAWAWYTRYDYWGQGTQVTVSS | low polyreactivity
QDQLVESGGGLVQAGGSLRLSCAASGSIFVGYAMGWYRQAPGKETELVAAISTRGGSTYYADSVKGRFTISRDNAKNTVYLQMNSVKPEDTAVYYCAADYLDSTYGYVYGWDDYWGQGTQVTVSS | low polyreactivity
QVQLVESGGGLVQAGGSLRLSCAASGNIFVINAMGWYRQAPGKERELVAAINWTGGNTYYADSVKGRFTISRDNAKNTFYLQMNSLKPEDTAVYYSAADRRWFVWGLGYWGQGTQVTVSS | low polyreactivity
QVQLVESGGGLVQAGGSLRLSCAASGRTFVDNAMGWYRHAPGKERELVAAISSGGTTNYADSVKGRFTISRDNAKNTVYLQMNSLKPEDTAVYYCNTVATYLRSGYGYWGQGTQVTVSS | low polyreactivity
